The results in this text go back to patent publication US20250320252A1, “LONG-ACTING DUAL GIP/GLP-1 PEPTIDE CONJUGATES AND METHODS OF USE” (The Scripps Research Institute, priority 2021, published 2025).

Test [1] addresses cynomolgus monkey GLP1R (cynomolgus monkey) (UniProt F8V479). Briefly: cell-based or functional assay.
The target of test [2] is cynomolgus monkey GIPR (cynomolgus monkey). Kind of test: cell-based or functional assay.

With Semaglutide (peptide), the In Vitro Potency GLP1R EC50 [nM], Cyno in test [1] was determined as 0.13 nM.
Regarding Tirzepatide (peptide), in test [2], the In Vitro Potency GIPR EC50 [nM], Cyno worked out at 0.08 nM.
